Assay results published in paper PMC11078757, “Ligand efficacy modulates conformational dynamics of the µ-opioid receptor” (Nature, 2024).

Target: T1, Gi1 heterotrimer (human Gαi1, Gβ1, Gγ2) (human, UniProt P63096 1-354; P62873 1-340; P59768 1-71)
T1 construct: Gαi1, human; Gβ1, human; Gγ2, cloned together with human Gβ1 in pFastBac Dual; Treated with λ protein phosphatase; Purified with 10 µM GDP; made nucleotide-free in the assay with apyrase where said; Residues of the 3C site may be left on Gβ1 after cleavage; also called G protein; source: Hi5 cells, baculovirus co-infection, purified (Ni-NTA, MonoQ; also SEC for DEER samples); not shown: His6, …
Assay: single-molecule FRET within the labelled receptor (TIRFM); 20 nM µOR–Cy3/Cy5 with 100 µM ligand incubated with 20 µM Gi1, then apyrase (nucleotide-free); complex immobilised via Flag tag, biotinylated M1 Fab and streptavidin; 25 °C, LMNG/CHS micelles, 100 ms frames
Conditions: both partners purified

B1: µOR∆7(R182C/R273C) labelled with iodoacetamide-conjugated Cy3 and Cy5 (receptor)
chain: GPGNISDSSDPLAPASSSPAPGSWLNLSHVDGNQSDPSGPNRTGLGGSHSLSPQTGSPSMVTAITIMALYSIVCVVGLFGNFLVMYVIVRYTKMKTATNIYIFNLALADALATSTLPFQSVNYLMGTWPFGNILCKIVISIDYYNMFTSIFTLCTMSVDRYIAVTHPVKALDFRTPCNAKIVNVCNWILSSAIGLPVMFMATTKYRQGSIDCTLTFSHPTWYWENLLKICVFIFAFIMPVLIITVCYGLMILRLKSVRMLSGSKEKDCNLRRITRMVLVVVAVFIVCWTPIHIYVIIKALITIPETTFQTVSWHFCIALGYTNSCLNPVLYAFLDENFKRAFREFLIPTSSTIEQQNSARIRQNTREHPSTANTVDRTNHQLENLEAETAPLP
modifications: iodoacetamide-conjugated Cy3 and Cy5 on the introduced cysteines 182 and 273
notes: µ-opioid receptor, Mus musculus, residues 6-398, minimal-cysteine construct µOR∆7 with two introduced labelling cysteines; Tethered to the cover slip via its Flag tag, biotinylated M1 Fab and streptavidin; also called µOR–Cy3/Cy5; source: Sf9 insect cells, baculovirus, purified (Ni-NTA, anti-Flag M1 resin, SEC) in LMNG/CHS micelles; not shown: Flag, N-terminal, kept
  binding result: binds
